Measurements published in PMC7748003 (Plant Communications, 2019).

Experiments:
GST-SMXL7 = biological target: T1, GST-SMXL7 (Arabidopsis, UniProt O80875 1-1002); test: pull-down
T1 sequence (looked up): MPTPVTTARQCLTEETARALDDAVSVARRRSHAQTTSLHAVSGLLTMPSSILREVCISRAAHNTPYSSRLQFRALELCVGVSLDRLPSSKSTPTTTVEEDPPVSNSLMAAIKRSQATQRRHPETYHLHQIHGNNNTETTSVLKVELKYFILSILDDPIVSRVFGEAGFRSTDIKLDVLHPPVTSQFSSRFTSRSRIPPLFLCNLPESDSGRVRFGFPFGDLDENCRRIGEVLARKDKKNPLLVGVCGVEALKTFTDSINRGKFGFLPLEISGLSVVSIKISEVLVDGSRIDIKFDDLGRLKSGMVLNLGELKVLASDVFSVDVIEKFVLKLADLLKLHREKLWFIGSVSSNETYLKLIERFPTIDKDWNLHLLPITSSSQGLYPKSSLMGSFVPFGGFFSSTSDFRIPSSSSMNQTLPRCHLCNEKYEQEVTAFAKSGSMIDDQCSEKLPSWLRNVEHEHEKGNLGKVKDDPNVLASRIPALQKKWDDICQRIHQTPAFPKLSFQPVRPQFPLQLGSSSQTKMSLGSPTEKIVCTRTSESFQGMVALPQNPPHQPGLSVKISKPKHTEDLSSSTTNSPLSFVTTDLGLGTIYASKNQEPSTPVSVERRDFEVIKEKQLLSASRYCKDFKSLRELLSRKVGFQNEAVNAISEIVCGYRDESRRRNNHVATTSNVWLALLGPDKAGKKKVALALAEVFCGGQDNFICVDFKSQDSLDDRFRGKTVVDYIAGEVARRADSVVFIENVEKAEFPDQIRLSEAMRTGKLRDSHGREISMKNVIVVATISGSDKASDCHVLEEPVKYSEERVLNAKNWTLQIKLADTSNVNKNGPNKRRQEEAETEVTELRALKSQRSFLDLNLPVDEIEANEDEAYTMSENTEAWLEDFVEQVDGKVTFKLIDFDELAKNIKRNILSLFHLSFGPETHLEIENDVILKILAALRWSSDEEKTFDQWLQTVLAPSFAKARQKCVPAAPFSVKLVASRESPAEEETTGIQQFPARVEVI

GST-SMXL6 = biological target: T2, GST-SMXL6 (Arabidopsis, UniProt Q9LML2 1-979); test: pull-down
T2 sequence (looked up): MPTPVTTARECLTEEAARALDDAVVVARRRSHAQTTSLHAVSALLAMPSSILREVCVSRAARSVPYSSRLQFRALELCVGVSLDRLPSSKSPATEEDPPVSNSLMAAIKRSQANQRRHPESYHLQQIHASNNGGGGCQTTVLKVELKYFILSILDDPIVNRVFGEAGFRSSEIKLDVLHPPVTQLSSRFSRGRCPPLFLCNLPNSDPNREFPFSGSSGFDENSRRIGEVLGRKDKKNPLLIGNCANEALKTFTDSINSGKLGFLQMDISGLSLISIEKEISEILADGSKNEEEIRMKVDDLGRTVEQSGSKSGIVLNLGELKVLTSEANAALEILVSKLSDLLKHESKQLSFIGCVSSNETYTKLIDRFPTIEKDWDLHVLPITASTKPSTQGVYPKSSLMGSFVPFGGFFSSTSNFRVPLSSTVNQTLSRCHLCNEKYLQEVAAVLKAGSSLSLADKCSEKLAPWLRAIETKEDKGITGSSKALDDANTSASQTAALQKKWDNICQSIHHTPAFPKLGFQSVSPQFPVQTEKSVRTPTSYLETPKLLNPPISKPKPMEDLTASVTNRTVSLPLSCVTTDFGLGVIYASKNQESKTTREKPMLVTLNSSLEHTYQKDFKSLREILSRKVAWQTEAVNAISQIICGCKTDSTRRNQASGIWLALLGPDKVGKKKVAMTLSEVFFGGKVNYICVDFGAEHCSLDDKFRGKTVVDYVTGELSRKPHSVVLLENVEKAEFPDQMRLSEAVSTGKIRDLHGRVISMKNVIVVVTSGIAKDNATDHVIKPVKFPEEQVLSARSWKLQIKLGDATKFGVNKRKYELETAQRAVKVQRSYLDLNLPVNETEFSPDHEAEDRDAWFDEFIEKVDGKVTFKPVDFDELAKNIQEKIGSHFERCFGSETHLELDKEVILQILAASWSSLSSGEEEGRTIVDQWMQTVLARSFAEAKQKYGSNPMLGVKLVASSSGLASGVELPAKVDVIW

GST-SMXL8 = biological target: T3, GST-SMXL8 (Arabidopsis, UniProt F4IGZ2 1-910); test: pull-down
T3 sequence (looked up): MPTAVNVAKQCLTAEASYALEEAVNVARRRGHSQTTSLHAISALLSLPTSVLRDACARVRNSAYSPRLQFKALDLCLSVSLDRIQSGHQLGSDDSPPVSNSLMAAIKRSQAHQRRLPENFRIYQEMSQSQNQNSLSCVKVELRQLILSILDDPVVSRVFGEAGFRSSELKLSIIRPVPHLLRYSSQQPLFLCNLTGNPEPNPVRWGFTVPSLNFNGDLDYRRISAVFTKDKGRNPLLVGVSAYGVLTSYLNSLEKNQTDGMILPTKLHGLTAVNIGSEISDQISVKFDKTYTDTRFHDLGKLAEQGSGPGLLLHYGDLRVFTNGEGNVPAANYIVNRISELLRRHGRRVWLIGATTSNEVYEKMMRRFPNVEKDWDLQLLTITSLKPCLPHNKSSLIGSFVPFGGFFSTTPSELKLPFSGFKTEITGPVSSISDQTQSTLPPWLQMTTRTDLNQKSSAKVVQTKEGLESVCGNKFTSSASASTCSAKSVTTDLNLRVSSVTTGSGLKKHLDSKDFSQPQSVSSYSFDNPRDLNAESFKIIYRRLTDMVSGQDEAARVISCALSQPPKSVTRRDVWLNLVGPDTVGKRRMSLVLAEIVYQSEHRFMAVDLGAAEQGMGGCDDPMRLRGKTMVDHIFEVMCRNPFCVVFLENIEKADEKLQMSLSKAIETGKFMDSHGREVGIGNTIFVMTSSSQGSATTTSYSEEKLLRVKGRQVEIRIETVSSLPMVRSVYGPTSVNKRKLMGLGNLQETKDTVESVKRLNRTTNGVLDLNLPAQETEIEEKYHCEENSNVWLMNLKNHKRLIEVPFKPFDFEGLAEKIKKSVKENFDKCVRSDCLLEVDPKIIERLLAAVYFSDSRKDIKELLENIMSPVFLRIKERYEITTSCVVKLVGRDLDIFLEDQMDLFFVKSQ

BES1-MBP = BES1-MBP (Arabidopsis thaliana, UniProt Q9LN63 1-335); test: EMSA

Binder	binding result (GST-SMXL7)	binding result (GST-SMXL6)	binding result (GST-SMXL8)	binding result (BES1-MBP)
MBP-BES1 (natural protein, Arabidopsis, UniProt Q9LN63 1-335, looked up) MTSDGATSTSAAAAAAAMATRRKPSWRERENNRRRERRRRAVAAKIYTGLRAQGNYNLPKHCDNNEVLKALCSEAGWVVEEDGTTYRKGHKPLPGDMAGSSSRATPYSSHNQSPLSSTFDSPILSYQVSPSSSSFPSPSRVGDPHNISTIFPFLRNGGIPSSLPPLRISNSAPVTPPVSSPTSRNPKPLPTWESFTKQSMSMAAKQSMTSLNYPFYAVSAPASPTHHRQFHAPATIPECDESDSSTVDSGHWISFQKFAQQQPFSASMVPTSPTFNLVKPAPQQLSPNTAAIQEIGQSSEFKFENSQVKPWEGERIHDVAMEDLELTLGNGKAHS	binds	binds	binds	
BRC1 promoter probe a (fragment F2) (dsDNA) DNA 1: GAACAAATGCAATATATCAATAGTTAGTGTACATATGAAG DNA 2: CTTCATATGTACACTAACTATTGATATATTGCATTTGTTC				binds
BRC1 promoter probe b (fragment F4) (dsDNA) DNA 1: AACATAAACAAACACAAGGTCCTAATTATAGAAAAAAATC DNA 2: GATTTTTTTCTATAATTAGGACCTTGTGTTTGTTTATGTT				binds
BRC1 promoter probe c (fragment F5) (dsDNA) DNA 1: AAGAAGATTATAGTACAAGTGTCATTCTCAAAATTTTGTC DNA 2: GACAAAATTTTGAGAATGACACTTGTACTATAATCTTCTT				binds
